Source: patent US20240158537A1

Biological target: IL-7 receptor (IL-7R), heterodimer of IL-7R alpha (CD127) and common gamma chain (CD132), on primary human T cells (human) (UniProt P16871)
Experiment: cell-based or functional assay

Sequence of IL-7 receptor (IL-7R), heterodimer of IL-7R alpha (CD127) and common gamma chain (CD132), on primary human T cells (human) (P16871 21-459, chain 1 of 2): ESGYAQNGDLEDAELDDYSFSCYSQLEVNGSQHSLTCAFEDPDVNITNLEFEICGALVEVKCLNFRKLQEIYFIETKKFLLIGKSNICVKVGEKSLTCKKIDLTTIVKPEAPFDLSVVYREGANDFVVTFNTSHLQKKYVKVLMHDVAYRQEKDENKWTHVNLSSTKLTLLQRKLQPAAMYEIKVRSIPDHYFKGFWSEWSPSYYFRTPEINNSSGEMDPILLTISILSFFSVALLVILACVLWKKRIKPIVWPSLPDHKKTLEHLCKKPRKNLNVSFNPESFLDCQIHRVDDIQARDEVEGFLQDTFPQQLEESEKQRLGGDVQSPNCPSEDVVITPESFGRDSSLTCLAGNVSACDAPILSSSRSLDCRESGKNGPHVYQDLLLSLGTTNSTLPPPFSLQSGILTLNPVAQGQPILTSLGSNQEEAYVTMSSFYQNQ
Sequence of IL-7 receptor (IL-7R), heterodimer of IL-7R alpha (CD127) and common gamma chain (CD132), on primary human T cells (human) (P31785 23-369, chain 2 of 2, further chain): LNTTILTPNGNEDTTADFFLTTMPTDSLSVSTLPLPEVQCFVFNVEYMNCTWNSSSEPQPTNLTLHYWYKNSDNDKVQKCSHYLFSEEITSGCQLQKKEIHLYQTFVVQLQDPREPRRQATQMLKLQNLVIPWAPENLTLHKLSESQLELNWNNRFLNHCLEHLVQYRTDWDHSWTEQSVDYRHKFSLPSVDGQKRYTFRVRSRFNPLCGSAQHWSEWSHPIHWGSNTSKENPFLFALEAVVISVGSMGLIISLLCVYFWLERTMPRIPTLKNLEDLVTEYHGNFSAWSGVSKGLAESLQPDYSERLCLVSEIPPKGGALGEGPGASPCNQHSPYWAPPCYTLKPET

Avg EC50 (nM) (human pSTAT5), CD4 Memory: 0.005 nM
Avg EC50 (nM) (human pSTAT5), CD4 Naive: 0.005 nM
Avg EC50 (nM) (human pSTAT5), CD4 Treg: 0.015 nM
Avg EC50 (nM) (human pSTAT5), CD8 Memory: 0.006 nM
Avg EC50 (nM) (human pSTAT5), CD8 Naive: 0.006 nM
Substance: Synthetic IL-7 of SEQ ID NO: 3 (M17Nle, M27Nle, N36Hse, M54Nle, M69Nle, D76Hse, E114Hse, M147Nle) (from UniProt P13232 26-177) (ligand)
